Data reported in patent publication US20250277003A1.

Experiments:
[1] = target: BatCoV Anlong-103 spike RBD (BatCoV Anlong-103); experiment: bead flow cytometry
[2] = target: SARS-CoV-2 spike receptor-binding domain, wildtype (CoV-2 RBD WT) (SARS-CoV-2) (UniProt P0DTC2); experiment: bead flow cytometry

Substance	gMFI [1]	gMFI [2]
mAb S309 (antibody)	69.3	8370
mAb CR3022 (antibody)	12900	25800
